Test results as given in patent US20180273623A1.

Target: EGFR (human) (UniProt P00533)
Assay: flow cytometry on HCC-1954 cells, upper panel; staining antibody not named on the sheet or in the legend, assigned by analogy with FIG. 28A and 28C; open histogram shifted from the hatched control

EGFR 528 (phb 704) (antibody)
MFI: 262
